The test concerns the target T1, NaPI-insensitive chymotrypsin from H. punctigera (HpCh5), native enzyme from the larval gut (Helicoverpa punctigera).
T1 construct: also called NaPI-insensitive protease; Rech1a
In words: affinity column of immobilized recombinant C1, trypsin-depleted gut extract passed through. As for the experimental part: The midgut was dissected from 80 fourth instar larvae and buffer soluble extracts were prepared. The gut extract was depleted of trypsins by repeated passage through a benzamidine-Sepharose affinity column. […] This column was expected to specifically bind NaPI-sensitive chymotrysins.
The filtered gut extract was passed through the benzamidine column five times to remove the trypsins.

T1 sequence (chain, as listed by the source limits assumed): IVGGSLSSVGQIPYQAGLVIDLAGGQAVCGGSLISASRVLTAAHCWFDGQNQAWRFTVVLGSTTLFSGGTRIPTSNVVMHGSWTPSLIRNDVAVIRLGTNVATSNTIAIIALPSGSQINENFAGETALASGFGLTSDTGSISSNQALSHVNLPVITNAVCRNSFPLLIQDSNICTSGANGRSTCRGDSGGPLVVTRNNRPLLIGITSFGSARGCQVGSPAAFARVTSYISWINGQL

B1: recombinant C1 inhibitor with N-terminal hexahistidine tag, expressed in E. coli (other)
chain: DRICTNCCAGTKGCKYFSDDGTFVCEGESDPRNPKACTLNCDPRIAYGVCPRSEEKKN
notes: also called 6H.C1; not shown: hexahistidine tag at the N-terminus from the pQE-30 vector
As to B1, the binding result is reported as “no binding”.

(Values after patent US20090188010A1 (HEXIMA, published 2009).)
